From paper PMC6035287

Biological target: bovine brain tubulin (free tubulin) (bovine) (UniProt Q6B856)
Assay: ITC; TOG domain proteins in the syringe (150 μM CLASP2 TOG1, TOG2, TOG3; 200 μM CLIP-ID; 250 μM Stu2 TOG1), 15 μM bovine brain tubulin in the cell; BRB80 with 50 mM NaCl, 25°C; one set of sites model

Kd: 18.8 nM
B1: Stu2 TOG1 (domain or fragment)
chain: MSGEEEVDYTTLPLEERLTYKLWKARLEAYKELNQLFRNSVGDISRDDNIQIYWRDPTLFAQYITDSNVVAQEQAIVALNSLIDAFASSSLKNAHNITLISTWTPLLVEKGLTSSRATTKTQSMSCILSLCGLDTSITQSVELVIPFFEKKLPKLIAAAANCVYELMAAFGLTNVNVQTFLPELLKHVPQLAGHGDRNVRSQTMNLIVEIYKVTGNNSDLLEEILFKKLKPIQVKDLHKLFAKVGDEPSSSKMLFEWEKRELEKKRSQEEEA
